tested on: MS2 coat protein; test: apparent KD of MS2 coat protein; higher = weaker reporter binding; conditions: Eterna round: R107; input ligand: arginine 13.2 mM
In short: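 Designed RNA switches were transcribed on-chip from Illumina sequencing clusters. SNAP-549-labelled MS2 coat protein was titrated onto them in twofold steps from 0.7 or 1.5 nM to 3 µM in 100 mM Tris-HCl pH 7.5, 80 mM KCl, 4 mM MgCl2, either without or with constant ligand. Apparent KD reflects the per-design median of normalised cluster binding-curve fits.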

| Sequence | apparent KD of MS2 coat protein [nM] |
| --- | --- |
| AGCACUGUGACGGCCGCCACUACAUAAUAGGGUGGUCAGGUUCAUAUACAUGAGGAUCACCCAUGUAGGACCGGGUCUCAGUGCA [Omei Trp Exc B A v6] | 8.68 |
| AAAACACAUGAGGAUCACCCAUGUCGUGAUACCAGUCAACAUGAGGACCCUUGGCAGCAUAAAAUGGGUAACAUGAGGAUCACCC [AstrosEXyTheA#5] | 65.3 |
| UCGUAGGUAGGAAGGAGCGCAUACUUCACAUGAGGAUCACCCAUGUCGAGACGUGAGUCAGUGCAGGUAGGUCGCCUAGCUAUGA [Same State - Arginine B (Freestyle 25)] | 18.2 |
| AACAGGGCUUCCACGAAGCCCUAAGGUGAUACCAGCACAUGUAAGUGCCCUUGGCAGCACGGUACAUGAGGAUCACCCAUGUAGA [Gerara] | 19.9 |
| AGCGAUUUCGGAAGGAGCGGUACAUGAGGAUCACCCAUGUAUUCAAUCGUGAUCGGCGCGUGCCAGGUAGGUCGCCGAAGGCGUC [Veatat] | 12.4 |
| UGUAUGUGAUCUGAUACCAGUCCAACUGGUAAAAUCUGAGGAUCACCCAGGUAAAAUUGGGACCCUUGGCAGCAGAUCGCAUACU | 146 |
| GGUACAUGAGGAUCACCCAUGUGUCAUGAUACCAGACAUGAAAAUGUCCCUUGGCAGCAUGCCUGAUGGCCGCGUUUAGCGGCCG [Liskovec] | 15.8 |
| ACAUGAGGAUCACCCAUGUCAUGAGGUUCACGAGGACCGGUACGGCCGCCACUCGACAUGAGGGUCACCCGUGAACGGAACACCC [kpmullin] | 14.7 |
| CCUCGACAUGAGGAUCACCCAUGUAGAGAUACCAGCCUGUGAGAUGGCCCUUGGCAGCUCAUAUAGGGUACAGGAGUCGUUUUGA [Qugetila] | 23.5 |
| UAAACUACACAUGAGGAUCACCCAUGUGGCCGAGGACCGGUACGGCCGCCACUCGUGUGUUAAUAAAAGAACCGCAAAGUUCUGU [Ticerear] | 49.8 |
| UGUAUGUGAUCUGAUACCAGUCCCUUGGCAGCAACAUGAGGAUCACCCAUGUAGAUACCAGACCCUUGGCAGCAGAUCGCAUACU [#DoubleAptamer 1] | 8.55 |
| UGUACCAUGUCGGCCGCCACUCAUGAUAAACCUGAGGAUCACCCUGGUAGCGUCAAAGACGCUAUGAGGACCGGGACAUGGUACU [TryBS Zipper 2] | 29.7 |
| AAUCUGUCGGGUGAUACCAGCCUCGGCGCAUCUCACGCUGAACAUGAGGAUCACCCAUGUGGCCCUUGGCAGCACAUGACAAAUC [Tivece] | 202 |
| AAACAUUGCUCAGAUACCAGACAUGAGGAUCACCCAUGUACCAAGGUAAAGAAAUAACGUGUCCCUUGGCAGCUGAGCAAUGAAA [MAT - Exclusion Theophlline B - Mod of Eli - D10] | 11.5 |
| GGAUAGGACAGAAGGAGCGACAUGAGGAUCACCCAUGUCUACUACGUCGAAAGACGCUCAUGUCAGGUAGGUCGCUGUCCUAUCG [#28 Exclusion - Arginine B] | 70.9 |
| AACAUACAGUUUUAGGUGGAUAUAAGGCGGCGAGGACCGGUACGGCCGCCACUCGCGUACAUGAGGAUCACCCAUGUCUGAAGCU [Same State - Tryptophan A (Freestyle 7)] | 24.4 |
| CACGCGGUGUCGGCCGCCACUGACGCCCGUGGGUCUCCUGACAUGAGGAUCACCCAUGUACAGCGCAGGACCGGGACACCAACAA [Are] | 22 |
| AUGCAGAACACGGCCGCCACUCAUUGUAGACAUGAGGAUCACCCAUGUAAUAGGGAUAUUUUAUUGAGGACCGGGUGUAAUGCAA [JR_SSTryptoB_Sub013] | 34.5 |
| CGAGUGAGUUCAAUCGAAUAACGGUUUUCGCGAGGACCGGUACGGCCGCCACUCGUGUGAUAUCACACAUGAGGAUCACCCAUGU [3'end-1] | 34.7 |

| Sequence | apparent KD of MS2 coat protein [nM] |
| --- | --- |
| AUUAAAGUUUAUAAGGAAAUUGAAACAGAAGGAGCGUGAGUAAUCACAGGUAGGUCGCUGGUAGUACAUGAGGAUCACCCAUGUU [JR_Nu_SSArginiA_Sub020] | 22.2 |
| AUAACUGUAAUAAACCGCAGGCUAGUGGAAGGAGCGCGGAAUAACGCAGGUAGGUCGCCACAAACAUGAGGAUCACCCAUGUGGC [SSAA NP+V+V2 #6] | 16 |
| ACUGGAGGUGGAAGGAGCGGGAGACAUGAGCAUCACAUGAGGAUCACCCAUGUAGGAUCAUCCCAGGUAGGUCGCCAUGUCGAAA [rtfemullin] | 120 |
| GGGAGGGAGGCGGCCGCCACUGAUUUUCAUAUAUAUAUAACAUGAGGAUCACCCAUGUGGAUAUACAGGACCGGGCCUUUUUUUU [aaaH] | 17.6 |
| GACAAUAAUUCAACAAUCAAAAUAGUGGGACGAGGACCGGUACGGCCGCCACUCGCUGAAGCACAUGAGGAUCACCCAUGUCUAA [theeternabot_exclusion_MS2_Trp_A_47] | 14.8 |
| UCGUAGGUAGGAAGGAGCGCAUACUUCACAUGAGGAUCACCCAUGUCGAGACGUGAGUCAGUGCAGGUAGGUCGCCUAGUUAUGA [Same State - Arginine B (Freestyle 24)] | 19.6 |
| AAAAGAGGUGGAAGGAGCGGGAGACAUGAGGAUCACCCAUGUGAUAUGACAAGAGGAUCAGCCCAGGUAGGUCGCCAUGUCGAAA [pbbbmullin] | 17.9 |
| UGACAUUGCUCAGAUACCAGACGUGAGGAUCACCCACGUGCCAACAAGUACAUAAUAAAUGUCCCUUGGCAGCUGAGCAAUGUCU [TheoBX 17 #MS2Left #Theo2 #AlternativeMS2] | 16.4 |
| CGAUACAAAUAAAGCGUUCGUCCGCCAGAUACCAGAUUCAUUUCCAUCCCUUGGCAGCUGUCGACAUGAGGAUCACCCAUGUUUG [theeternabot_exclusion_MS2_Theo_A_41] | 17.2 |
| GGUCUCUGGAGCGAUACCAGCUUGAUCGUACUAGCCAGGUACAUGAGGAUCACCCAUGUAAGCCCUUGGCAGCGCUCCAGAGACC [#1 Exclusion - Theophylline B Attempt #9 (HarryS)] | 8.2 |
| AGACAUGAGGAUCACCCAUGUAGCAUGGAUACCAGAUCCAGAUUUAUCCCUUGGCAGCUGUGGUACAGUGAUGGAUUGCUCCUAG [Exclusion - Theophylline A (Freestyle 8)] | 46.3 |
| GUACAUGAGGAUCACCCAUGUAUAGUUGAAGGAGCGACCAGAGGGUCAGGUAGGUCGCAGCACAUGGUGAAAACCCGUGUAUGCC [#1 Exclusion - Arginine A Attempt #21 (Inspired by Pi)] | 40.4 |
| GAGGAAACUCACAUGAGGAUCACCCAUGUACGAGGACCGGUACGGCCGCCACUCGAAACCAUGGGCGGUAGUACAUGGAAACAUG [Design 2 MOD] | 34 |
| UGUCGAAACUGAAGGAGCGAGAUGACAAACAUGAGGAUCACCCAUGUUAUGGGUUGUUAAUCUCAGGUAGGUCGCAGUGACAAAA [Same State Arginine B GF 16] | 88.2 |
| UUAACGAGCUGAAGGAGCGCUCUUCAUCAACAUGAGGAUCACCCAUGUACACAUAAUAGGGAGCAGGUAGGUCGCAGCGGGAUGG [#24 Same State - Arginine B] | 14.2 |
| GGAUAGGACACGGCCGCCACUAUCUAGGAUACUAGCAACAUUUGGGUACUUGAGGAUCACCCAAGUAGGACCGGGUGUCCUAUCG | 82.7 |
| CUCCCUUCGGCGGCCGCCACUAACAGUUUAAUGGACUUUCGGGUCCACAUGAGGAUCACCCAUGUUAGGACCGGGCCCUUGCUCU [theeternabot_exclusion_MS2_Trp_B_39] | 8.8 |
| AAGUGGCACGGAAGGAGCGAGUUUACCUAAAUAACAUGAGGAUCACCCAUGUAUAAUGGGACUCAGGUAGGUCGCCGUUGUCACU [Same State Arginine B GF 23] | 22.9 |
| ACACGAGGAUCACCCGUGUCAUGUGGUGAUACCAGUUUACAUGAGAACCCUUGGCAGCAUAACAACAUGAGGAUCACCCAUGUCA [Same State - Theophylline A #1] | 24.4 |

same assay, conditions: Eterna round: R107; input ligand: none

| Sequence | apparent KD of MS2 coat protein [nM] |
| --- | --- |
| AGCACUGUGACGGCCGCCACUACAUAAUAGGGUGGUCAGGUUCAUAUACAUGAGGAUCACCCAUGUAGGACCGGGUCUCAGUGCA [Omei Trp Exc B A v6] | 10.6 |

Reference: the supplement of paper PMC9170038
